Test results reported in the supplement of paper PMC10065799, “High-throughput profiling of sequence recognition by tyrosine kinases and SH2 domains using bacterial peptide display” (eLife, 2023).

Assays:
[1] = tested on: c-Src; assay: phosphorylation enrichment, bacterial display (enrichment ratio); higher = better substrate or ligand; peptides without Tyr show the background
[2] = biological target: EPHB2 (UniProt P29323); assay: as above
[3] = biological target: Fes (UniProt P07332); assay: as above
[4] = biological target: Fyn (UniProt P06241); assay: as above
[5] = biological target: Jak2 (UniProt O60674); assay: as above
[6] = biological target: MERTK (UniProt Q12866); assay: as above
[7] = biological target: FGFR1 (UniProt P11362); assay: as above
[8] = tested on: c-Abl (mouse); assay: as above
[9] = biological target: Hck (UniProt P08631); assay: as above
[10] = tested on: AncSZ; assay: as above
[11] = biological target: EPHB1 (UniProt P54762); assay: as above
[12] = tested on: Fer (mouse); assay: as above
[13] = biological target: FGFR3 (UniProt P22607); assay: as above
[14] = biological target: Grb2 SH2 (UniProt P62993); assay: SH2 binding enrichment of the phosphorylated peptide, bacterial display (enrichment ratio); higher = better substrate or ligand; peptides without Tyr show the background
[15] = biological target: c-Src SH2; assay: as above
[16] = biological target: SHP2-C SH2; assay: as above
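Wherever SH2 binding enrichment of the phosphorylated peptide, bacterial display is given: peptide library displayed on the E. coli surface as eCPX fusions, selected cells deep-sequenced, score is each peptide's frequency after selection divided by its frequency in the input.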
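Wherever phosphorylation enrichment, bacterial display is given: 11-residue human phosphosite peptides and single-mutation variants displayed on the E. coli surface, counted by deep sequencing, each peptide's frequency after selection divided by its frequency in the unselected input library; frequency after pTyr selection over input frequency; kinase dosed for 20-30% of maximal phosphorylation in three min.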

Chain of Hck (P08631 whole entry, looked up): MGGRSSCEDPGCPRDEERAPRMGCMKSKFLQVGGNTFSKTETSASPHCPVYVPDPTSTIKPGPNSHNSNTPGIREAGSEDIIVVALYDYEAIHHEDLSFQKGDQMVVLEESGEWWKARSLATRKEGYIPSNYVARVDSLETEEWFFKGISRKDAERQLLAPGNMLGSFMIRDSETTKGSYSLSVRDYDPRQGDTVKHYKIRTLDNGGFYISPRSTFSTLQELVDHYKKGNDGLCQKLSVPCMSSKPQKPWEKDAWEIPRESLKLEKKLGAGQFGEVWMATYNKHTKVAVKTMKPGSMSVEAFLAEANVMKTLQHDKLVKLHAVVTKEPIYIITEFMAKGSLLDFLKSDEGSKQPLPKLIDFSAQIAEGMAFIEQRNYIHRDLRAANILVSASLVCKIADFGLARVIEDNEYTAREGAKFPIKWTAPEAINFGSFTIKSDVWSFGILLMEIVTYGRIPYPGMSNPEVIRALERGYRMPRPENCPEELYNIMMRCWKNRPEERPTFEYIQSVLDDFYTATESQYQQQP
Chain of Jak2 (O60674 whole entry, looked up): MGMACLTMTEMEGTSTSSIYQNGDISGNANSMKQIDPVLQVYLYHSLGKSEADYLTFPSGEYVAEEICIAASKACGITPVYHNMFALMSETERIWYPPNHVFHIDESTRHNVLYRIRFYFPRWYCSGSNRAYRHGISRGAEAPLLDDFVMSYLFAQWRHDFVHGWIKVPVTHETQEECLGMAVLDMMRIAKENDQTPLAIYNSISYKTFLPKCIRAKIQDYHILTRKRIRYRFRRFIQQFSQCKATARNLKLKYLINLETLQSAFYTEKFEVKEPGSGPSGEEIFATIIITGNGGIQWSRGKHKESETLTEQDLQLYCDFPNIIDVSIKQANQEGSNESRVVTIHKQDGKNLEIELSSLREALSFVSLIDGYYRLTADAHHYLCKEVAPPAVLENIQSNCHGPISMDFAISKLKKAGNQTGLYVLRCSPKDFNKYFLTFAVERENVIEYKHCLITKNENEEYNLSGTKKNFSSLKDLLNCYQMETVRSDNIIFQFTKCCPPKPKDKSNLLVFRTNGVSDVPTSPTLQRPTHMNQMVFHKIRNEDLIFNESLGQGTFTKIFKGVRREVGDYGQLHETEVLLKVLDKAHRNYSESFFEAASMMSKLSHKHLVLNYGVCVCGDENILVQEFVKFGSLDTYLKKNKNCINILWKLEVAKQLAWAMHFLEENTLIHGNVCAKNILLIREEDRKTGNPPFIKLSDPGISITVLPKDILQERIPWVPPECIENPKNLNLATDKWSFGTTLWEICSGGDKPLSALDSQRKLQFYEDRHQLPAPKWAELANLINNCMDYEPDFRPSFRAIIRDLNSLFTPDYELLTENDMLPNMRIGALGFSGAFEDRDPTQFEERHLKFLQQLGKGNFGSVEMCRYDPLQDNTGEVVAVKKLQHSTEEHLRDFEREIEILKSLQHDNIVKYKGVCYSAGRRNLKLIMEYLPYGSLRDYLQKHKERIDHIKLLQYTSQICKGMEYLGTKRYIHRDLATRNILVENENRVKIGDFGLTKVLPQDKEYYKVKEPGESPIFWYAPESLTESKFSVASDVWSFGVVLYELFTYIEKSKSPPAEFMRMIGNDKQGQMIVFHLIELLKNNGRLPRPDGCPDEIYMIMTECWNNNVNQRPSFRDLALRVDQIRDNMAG
Chain of FGFR1 (P11362 whole entry, looked up): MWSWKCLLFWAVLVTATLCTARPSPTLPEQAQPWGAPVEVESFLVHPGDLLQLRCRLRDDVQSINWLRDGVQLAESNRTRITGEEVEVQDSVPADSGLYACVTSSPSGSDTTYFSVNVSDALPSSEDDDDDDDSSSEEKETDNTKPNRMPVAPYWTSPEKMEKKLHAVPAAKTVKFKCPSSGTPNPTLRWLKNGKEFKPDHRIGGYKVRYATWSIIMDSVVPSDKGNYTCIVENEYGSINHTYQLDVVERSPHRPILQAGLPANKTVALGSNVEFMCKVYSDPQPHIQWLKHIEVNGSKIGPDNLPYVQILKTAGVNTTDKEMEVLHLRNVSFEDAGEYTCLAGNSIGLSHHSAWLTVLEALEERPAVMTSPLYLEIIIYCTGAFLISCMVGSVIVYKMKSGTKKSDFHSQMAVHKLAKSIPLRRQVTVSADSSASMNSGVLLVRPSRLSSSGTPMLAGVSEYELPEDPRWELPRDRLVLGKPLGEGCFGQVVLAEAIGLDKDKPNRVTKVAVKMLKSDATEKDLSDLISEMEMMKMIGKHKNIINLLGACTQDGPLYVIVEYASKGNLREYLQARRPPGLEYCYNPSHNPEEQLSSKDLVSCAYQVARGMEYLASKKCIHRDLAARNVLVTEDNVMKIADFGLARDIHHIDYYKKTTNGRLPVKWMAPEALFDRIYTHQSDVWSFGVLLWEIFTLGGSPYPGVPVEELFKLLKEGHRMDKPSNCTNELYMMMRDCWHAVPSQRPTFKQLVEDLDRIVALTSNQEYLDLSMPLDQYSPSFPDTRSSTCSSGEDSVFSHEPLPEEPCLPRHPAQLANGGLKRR
Chain of Fyn (P06241 whole entry, looked up): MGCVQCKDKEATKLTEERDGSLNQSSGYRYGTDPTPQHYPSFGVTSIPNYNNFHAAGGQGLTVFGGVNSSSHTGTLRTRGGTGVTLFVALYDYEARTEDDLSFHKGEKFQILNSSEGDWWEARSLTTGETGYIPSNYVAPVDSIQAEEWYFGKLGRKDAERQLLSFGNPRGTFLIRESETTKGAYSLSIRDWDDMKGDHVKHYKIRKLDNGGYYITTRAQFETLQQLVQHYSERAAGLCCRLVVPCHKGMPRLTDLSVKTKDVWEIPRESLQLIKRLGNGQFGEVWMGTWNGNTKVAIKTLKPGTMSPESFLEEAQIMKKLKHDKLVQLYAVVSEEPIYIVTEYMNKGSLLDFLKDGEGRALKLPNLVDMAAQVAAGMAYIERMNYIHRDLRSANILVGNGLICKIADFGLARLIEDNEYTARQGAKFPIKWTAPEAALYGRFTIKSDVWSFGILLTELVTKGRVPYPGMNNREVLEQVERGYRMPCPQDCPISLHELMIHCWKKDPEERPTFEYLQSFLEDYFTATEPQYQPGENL
Chain of Grb2 SH2 (P62993 whole entry, looked up): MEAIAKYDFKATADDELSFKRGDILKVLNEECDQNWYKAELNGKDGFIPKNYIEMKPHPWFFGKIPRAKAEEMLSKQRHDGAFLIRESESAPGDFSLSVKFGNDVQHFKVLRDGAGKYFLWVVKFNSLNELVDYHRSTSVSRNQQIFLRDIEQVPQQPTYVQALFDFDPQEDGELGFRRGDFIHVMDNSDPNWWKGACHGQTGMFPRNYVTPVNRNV
Chain of EPHB1 (P54762 whole entry, looked up): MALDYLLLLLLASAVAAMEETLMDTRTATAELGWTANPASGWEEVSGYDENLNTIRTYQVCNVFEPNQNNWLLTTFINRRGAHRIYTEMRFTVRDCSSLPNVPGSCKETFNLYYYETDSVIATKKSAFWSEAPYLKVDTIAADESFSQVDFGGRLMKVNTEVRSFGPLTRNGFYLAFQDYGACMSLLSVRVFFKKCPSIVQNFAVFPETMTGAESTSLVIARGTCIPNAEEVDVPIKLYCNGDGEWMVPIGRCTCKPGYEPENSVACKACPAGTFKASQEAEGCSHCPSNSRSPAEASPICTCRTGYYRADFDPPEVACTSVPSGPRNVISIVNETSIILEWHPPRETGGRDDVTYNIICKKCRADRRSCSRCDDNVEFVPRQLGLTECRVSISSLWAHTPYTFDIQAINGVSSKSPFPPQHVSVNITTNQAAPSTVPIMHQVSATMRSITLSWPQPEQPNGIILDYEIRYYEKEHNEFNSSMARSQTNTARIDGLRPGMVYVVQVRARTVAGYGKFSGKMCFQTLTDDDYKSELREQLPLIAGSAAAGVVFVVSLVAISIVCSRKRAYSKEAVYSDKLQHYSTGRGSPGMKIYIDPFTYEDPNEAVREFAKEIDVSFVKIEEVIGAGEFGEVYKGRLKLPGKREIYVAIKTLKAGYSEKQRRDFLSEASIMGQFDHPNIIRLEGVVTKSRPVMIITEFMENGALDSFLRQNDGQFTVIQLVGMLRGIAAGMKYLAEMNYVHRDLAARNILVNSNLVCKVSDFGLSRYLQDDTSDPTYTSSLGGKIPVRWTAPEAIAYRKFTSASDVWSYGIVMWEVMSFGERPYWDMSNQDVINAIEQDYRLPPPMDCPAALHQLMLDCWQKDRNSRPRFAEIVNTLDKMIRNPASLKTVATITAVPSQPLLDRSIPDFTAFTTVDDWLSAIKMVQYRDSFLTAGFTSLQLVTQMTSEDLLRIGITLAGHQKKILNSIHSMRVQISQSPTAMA
Chain of FGFR3 (P22607 whole entry, looked up): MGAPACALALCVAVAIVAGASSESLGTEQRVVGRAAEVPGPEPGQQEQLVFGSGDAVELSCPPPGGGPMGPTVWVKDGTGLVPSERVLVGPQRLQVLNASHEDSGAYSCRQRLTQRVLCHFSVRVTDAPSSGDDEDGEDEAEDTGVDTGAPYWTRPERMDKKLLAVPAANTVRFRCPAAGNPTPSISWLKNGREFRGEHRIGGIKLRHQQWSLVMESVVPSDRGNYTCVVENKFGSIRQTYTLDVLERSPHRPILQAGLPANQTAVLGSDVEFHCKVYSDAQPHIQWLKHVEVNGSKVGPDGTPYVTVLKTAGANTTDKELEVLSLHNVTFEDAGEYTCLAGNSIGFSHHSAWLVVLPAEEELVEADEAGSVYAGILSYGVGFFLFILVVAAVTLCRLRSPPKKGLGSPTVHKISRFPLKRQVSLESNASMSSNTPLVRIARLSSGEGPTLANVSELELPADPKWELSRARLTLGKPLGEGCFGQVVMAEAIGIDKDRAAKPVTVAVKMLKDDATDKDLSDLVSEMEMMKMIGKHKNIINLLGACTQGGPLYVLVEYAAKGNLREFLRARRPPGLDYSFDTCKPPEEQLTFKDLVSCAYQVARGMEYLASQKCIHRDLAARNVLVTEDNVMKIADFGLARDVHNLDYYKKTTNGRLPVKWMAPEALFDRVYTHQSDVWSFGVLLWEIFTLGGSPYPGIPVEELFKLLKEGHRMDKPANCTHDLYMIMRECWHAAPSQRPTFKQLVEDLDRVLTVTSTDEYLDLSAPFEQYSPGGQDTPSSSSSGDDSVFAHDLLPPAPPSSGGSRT

Sequence	phosphorylation enrichment [1]	phosphorylation enrichment [2]	phosphorylation enrichment [3]	phosphorylation enrichment [4]	phosphorylation enrichment [5]	phosphorylation enrichment [6]	phosphorylation enrichment [7]	phosphorylation enrichment [8]	phosphorylation enrichment [9]	phosphorylation enrichment [10]	phosphorylation enrichment [11]	phosphorylation enrichment [12]	phosphorylation enrichment [13]	SH2 binding enrichment [14]	SH2 binding enrichment [15]	SH2 binding enrichment [16]
SVVVPYEPPEI [TP53_Y220_V225I]	0.447	0.62	1.25	0.408	0.967	0.37	0.44	0.8	0.616	1.15	0.552	0.4	0.665	0.854	0.844	0.867
SVVVPYEPPKV [TP53_Y220_E224K]	0.465	0.59	0.837	0.387	0.822	0.366	0.41	0.895	0.465	0.827	0.474	0.45	0.612	0.806	0.64	0.512
TAALWYIYLHT [ENG_Y612_S615L]	0.566	0.639	1.66	0.587	1.55	0.516	0.81	1.18	0.579	1.41	0.796	0.769	1.1	0.989	0.514	0.52
TDLAYYLVRKG [ASL_Y376]	0.783	0.629	0.962	0.539	2.05	0.684	3.17	0.672	0.716	0.963	0.468	0.48	2.42	0.95	0.795	1.41
TEDELYQLFLQ [RASGRP2_Y378_S381F]	4.23	0.825	1.56	4.54	1.3	2.01	1.37	1.13	3.67	3.06	1.05	8.85	1.9	0.633	0.476	0.963
TENAGYYFQVS	0.509	0.713	1.52	0.456	1.99	1.29	2	0.983	0.563	1.39	0.78	0.604	1.76	0.783	0.962	1.04
TEQDPSNNIVR [MMUT_Y364_Y364S]	0.492	0.46	1	0.492	0.771	0.464	0.55	0.768	0.408	0.824	0.468	0.408	0.557	0.969	0.5	0.863
TFFQMYDKGLV [IARS2_Y231_YF]	0.537	0.569	1.14	0.566	1.03	0.542	0.52	0.734	1.06	0.862	0.531	0.57	0.623	0.99	0.526	0.7
TFINKYQGKLF [HGD_Y249_V245F]	0.347	0.346	0.589	0.414	0.457	0.631	0.387	0.52	0.368	0.566	0.391	0.358	0.457	0.726	0.629	0.78
TFMKKYPKVFL [CNBD1_Y70_Q69K]	0.447	0.419	0.662	0.357	0.642	0.404	0.485	0.548	0.366	3.41	0.508	0.393	0.419	1.12	1.17	1.52
TFRPPYYHRDC [HGD_Y333_N337D]	0.583	0.734	1.28	0.658	0.82	0.499	0.874	0.639	0.822	1.17	0.834	0.756	1.12	1.04	1.05	1.2
TGDFGYRTPGY [TNS2_Y668_A670T]	0.432	0.423	0.651	0.479	0.484	0.481	0.404	0.459	0.394	0.524	0.4	0.342	0.465	0.762	0.466	0.889
TGEDWYVLVRV [SF3B3_Y904_G908R]	0.385	0.64	1.42	0.433	1.21	0.364	0.405	0.954	0.561	1.37	0.893	0.524	0.827	0.626	0.377	0.491
TGEKLYQRKEF [ZNF283_Y627]	0.447	0.379	0.847	0.526	0.59	0.477	0.539	0.507	0.543	0.813	0.62	0.437	0.489	0.889	0.456	0.728
TGFRPYVCPFD [YY1_Y383_D380Y_YF]	0.458	0.978	0.975	0.4	1.12	0.849	1.1	1.29	0.691	1.54	2.1	0.892	1.66	0.677	0.56	0.82
TGNGFYFRVFS [MYBPC3_Y1136_I1131T_YF]	0.374	0.517	1.33	0.393	1.32	0.36	0.433	0.929	0.456	1.1	0.65	0.543	0.763	0.705	0.363	0.62
TLNHQYDFTFH [CSNK1A1_Y292_D297H_YF]	0.58	0.624	1.17	0.588	0.738	0.557	0.557	0.735	0.559	1.02	0.759	0.685	0.785	1.01	4.74	0.717

Sequence	phosphorylation enrichment [1]	phosphorylation enrichment [2]	phosphorylation enrichment [3]	phosphorylation enrichment [4]	phosphorylation enrichment [5]	phosphorylation enrichment [6]	phosphorylation enrichment [7]	phosphorylation enrichment [8]	phosphorylation enrichment [9]	phosphorylation enrichment [10]	phosphorylation enrichment [11]	phosphorylation enrichment [12]	phosphorylation enrichment [13]	SH2 binding enrichment [14]	SH2 binding enrichment [15]	SH2 binding enrichment [16]
TLQSMFGCDVG [HLA-B_Y123_Y123F]	0.44	0.85	1.09	0.648	0.852	0.511	0.515	0.637	0.489	0.989	0.657	0.523	0.7	0.79	0.541	0.684
TRLAQYDSNSK [BMX_Y216_S212R]	0.643	0.402	0.684	0.44	0.811	0.682	0.527	0.776	0.42	0.713	0.399	0.445	0.41	0.962	0.637	0.829
TRNRDYDDIDD [TTYH2_Y424]	0.448	0.563	0.917	0.451	0.734	0.507	0.562	0.621	0.527	1.02	0.497	0.438	0.665	0.721	0.593	0.766
TRSCKYLLLSM [NF1_Y491_Y489C]	0.39	0.621	0.954	0.441	0.864	0.512	0.53	0.614	0.549	0.823	0.521	0.416	0.552	1.41	1.04	1.58
TRSFDYMEGGD [FGF7_Y58_YF]	0.446	0.544	1.18	0.535	1.05	0.613	0.617	0.761	0.599	1.03	0.487	0.416	0.674	1.07	0.576	0.791
TRYDEYLEVTK [MAP1A_Y2217_H2214Y]	0.538	0.884	1.25	0.519	1.16	0.425	0.901	0.909	0.539	1.31	0.98	0.592	0.872	0.777	1.02	0.506
TSSAGYRAAEG [COL6A3_Y543]	0.316	0.406	0.629	0.422	0.365	0.365	0.573	0.309	0.379	0.524	0.505	0.429	0.641	0.903	0.485	0.653
TTEHIYGDKFF [UBA7_Y524_N527K]	4.65	0.477	0.762	4.92	0.648	0.459	0.597	0.728	2.15	0.722	0.468	0.502	0.563	0.704	0.471	0.655
TTSQLYDAVPI [PDPK1_Y9]	7.33	17.1	1.41	10.2	0.849	13	0.611	1.31	11.5	1.28	13.4	19.6	0.786	0.728	0.485	0.848
TTSQPYRCLCS [USH2A_Y534]	0.562	0.587	0.941	0.557	0.931	0.781	0.552	1.07	0.523	0.951	0.473	0.509	0.707	1.24	0.653	0.992
TTTQAYRVNER [PRKN_Y391_D394N]	0.473	0.31	0.514	0.324	0.531	0.4	0.421	0.492	0.397	0.496	0.445	0.447	0.386	0.848	0.438	0.576
TVLEPYTDPYY [ZC3H18_Y367_A368T]	0.845	0.541	0.857	0.656	0.805	0.524	1	0.568	0.649	1.2	0.611	0.433	0.797	0.516	1.28	0.456
TVLGEYASPKG [CYP24A1_Y407_L409S]	0.468	0.612	0.619	0.498	0.561	0.513	0.405	3.4	0.578	0.733	0.508	0.371	0.482	1.02	0.596	0.793
TVQIMYGCDVG [HLA-A_Y123_I119V]	0.47	0.773	1.22	0.575	0.955	0.444	0.539	0.737	0.567	0.945	0.676	0.611	0.917	0.861	0.545	0.553
VAMDDYLKNVV [LRRK2_Y707_M712V]	0.376	0.59	0.919	0.364	0.708	0.393	0.468	0.518	0.477	0.872	0.482	0.405	0.666	0.828	0.573	0.648
VASSLYDILAR [GLB1_Y294]	2.84	1.01	1.05	1.77	1.24	8.38	0.37	0.763	8.2	1.02	1.16	1.96	0.557	0.567	0.78	0.67
